Assay [1] addresses T1, human Migration Stimulating Factor (MSF), natural protein in human cancer tissues (human, UniProt P02751 32-647).
T1 construct: Natural MSF as stained in formalin-fixed paraffin-embedded sections of breast and lung cancer; also called human MSF
The experiment in a line: immunohistochemistry on paraffin sections of breast and lung cancer. Here is the method: Paraffin-embedded human tissue sections were cut and kept overnight at 37° C. Sections were dewaxed in Bioclear. Antigen unmasking was performed in a Decloaker Chamber in DIVA Buffer 1× (Biocare Medical Cat No: DV2004) for 3 minutes at 125° C. and 5 minutes at 90° C.
After blocking endogenous peroxidases with Peroxidized-1 (Biocare Medical Cat No: PX968) for 15 minutes, non-specific binding sites were blocked with Background Sniper solution (Biocare Medical Cat No: BS966) for 30 minutes. Human tissue samples were then incubated 1 h with 1G5.3 (1/150-1/300) to identify MSF, or with mouse monoclonal anti-human CD68 (Dako Cat No: M0876, clone PG-M1, 780 μg/ml for 1 h) to identify macrophages. […] Then the reactions were developed with 3,3′-Diaminobenzidine tetrahydrochloride (Biocare Medical Cat No: DB801). Slides were counterstained for 3 min with haematoxylin solution.

Assay [2] concerns the target T2, recombinant human Migration Stimulating Factor (rhMSF) (human, UniProt P02751 32-647).
T2 construct: Secreted by the CHO-3E6 clone; also called hrMSF; human recombinant MSF
The experiment in a line: immunoaffinity chromatography on a column coupled to 1G5.3. Here is the method:
Recombinant human MSF was purified from the conditioned medium of CHO-3E6 by immunoaffinity chromatography (IAC). […] The 1G5.3 column was extensively washed at 5 ml/min with buffer A followed by buffer B (50 mM Tris-HCl, 500 mM NaCl, pH 7.00), and bound rhMSF was eluted with buffer C (3.5 M MgCl2) in a total volume of 4 ml. Homogeneity of the eluted protein was assessed using an analytical Superdex 200 10/300 GL gel filtration column (GE Healthcare), equilibrated and eluted at 0.5 ml/min with buffer B on an AKTA Purifier FPLC system. In addition, aliquots of conditioned medium (input), unbound material (flow through) and eluted protein (eluate) from IAC were resolved on NuPAGE Novex Bis-Tris 10% gels (Thermo Fisher Scientific, Waltham, Mass.) under denaturing and reducing conditions (i.e., in the presence of dithiothreitol). […] Membranes were developed with Immobilon western HRP substrate (Merck Millipore, Darmstadt, Germany) and chemiluminescence recorded on a Chemidoc MP system (Bio-Rad). Throughout the purification process, total protein content was determined using a Bradford protein assay (Bio-Rad) and rhMSF specific titres were measured with an ELISA MSF assay made “in-house” as described below.

Assay [3] addresses T3, human Fibronectin 1 (hFn1) (human, UniProt P02751 32-2477).
T3 construct: Bought from Calbiochem (Cat No 341635)
In words: indirect ELISA, titration of purified 1G5.3 on coated hFn1. Here is the method: ELISA plates (Nunc Maxisorb immunoplates Cat. No.: 446612) were coated (0/N at 4° C.) with His-MSF (1-0.5 μg/well), supernatant from CHO-3E6 (50 μl) or hFn1 (1 μg/well), diluted in 15 mM Na carbonate buffer (pH9.6). After coating plates are washed three times with PBS+/+ and 0.05% Tween 20 (washing buffer), then non-specific interactions are blocked by incubation for 2 h at room temperature with 5% (w/v) dry milk in washing buffer. Wells were washed three times with washing buffer, then aliquots of rabbit polyclonal antiserum, supernatants from anti-MSF hybridomas or purified 1G5.3 diluted in washing buffer were added and incubated 1 h at room temperature. Anti-rabbit IgG or anti-mouse IgG labelled with horse-radish peroxidase (Cat No: GENA934 and GENA931 respectively, GE […]) were then added (1/2000 in washing buffer) and incubated 1 h at room temperature. Reaction was developed with 3,3′,5,5′-tetramethylbenzidine (TMB; 1 Step™ ULTRA TMB-ELISA, Thermo Scientific, Rockford, Ill., USA; Cat No: 34019) and stopped with 2N H₂SO₄ before reading absorbance at 450 nm with an automated plate reader (Versamax microplate reader). Baseline was obtained adding anti-MSF antibody on buffer-coated wells.
mAb 1G5.3 was purified from culture supernatant of hybridoma cells by affinity chromatography on Protein-G sepharose. […] The purified antibody was finally analyzed in ELISA. […]

Assay [4] concerns the target T4, biot-VSIPPRNLGY peptide (biot-Ahx-VSIPPRNLGY) (human).
T4 construct: Synthetic; captured on NeutrAvidin-coated plates; also called unique MSF decapeptide; C-terminal unique tail of MSF
T4 peptide: {Biotin-Ahx}-VSIPPRNLGY
In words: indirect ELISA, peptide captured on NeutrAvidin, 1G5.3 at 10 ng/ml (FIG. 20A). On the procedure:
FIG. 20. Indirect ELISA analysis of the interaction of mAb7.1 and 1G5.3 with biot-[…] and rhMSF. A) The biot-[…] peptide (SEQ ID NO:11) (spanning the aa 648-657 sequence at the C-terminus of human MSF) was captured onto Maxisorb plates that had been coated with NeutrAvidin. […] B) Maxisorb plates were coated with rhMSF, and incubated with mAb7.1 hybridoma cultures or purified 1G5.3. […] Wells containing NeutrAvidin (NeutrAvidin in A) or PBS−/− (PBS in B) only were taken as negative controls. Shown are plots from one out of two independent experiments, each performed in duplicate.
Nunc Maxisorb immunoplates were coated (0/N at 4° C.) with NeutrAvidin protein (1 μg/well; Thermo Scientific, Rockford, Ill., USA; Cat No: 31000) in PBS−/−. Biot-[…] (SEQ ID NO:11) peptide (100 μl/well, 10 μg/ml in PBS+/+ containing 0.05% (v/v) Tween 20, washing buffer) was added and captured on the NeutrAvidin layer for 1 h at room temperature; this allowed N→C orientation of the peptide, thus mimicking its topological organization in the context of the MSF protein [19]. Uncoated sites were blocked by incubation for 2 h at room temperature with 2% (w/v) bovine serum albumin (BSA, Sigma Aldrich; Cat No: A7030) in PBS+/+. […] Each sample was analyzed in duplicate and results were reported as mean±SD.
On the technique in general: An ELISA detects its analyte on a solid surface through an enzyme-linked reagent.

Assay [5] concerns the target T2, recombinant human Migration Stimulating …. The experiment in a line: sandwich ELISA, 1G5.3-F(ab)′2 coated, rhMSF standard curve. On the procedure: To measure MSF levels in biological fluids a sandwich ELISA has been developed. To this aim ELISA plates were incubated O/N at 4° C. with 250 ng/well of 1G5.3 or 500 ng/well of the 1G5.3-F(ab)′2 fragment diluted in PBS−/−, pH 7.0. After coating, plates were washed three times with 300 μl of washing buffer and then blocked with 5% dry milk for 2 h at 37° C. 100 μl of human plasma [informed consents were obtained] diluted 1/10 in washing buffer containing 2% Bovine Serum Albumin were then added and incubated for 1 h at room temperature. In the same plate a standard curve was generated using purified recombinant human MSF. After washing, plates were incubated with commercial biotinylated polyclonal Sheep IgG recognizing human hFn1 (0.25 μg/ml in washing buffer; R&D Cat No: BAF1918) for 1 h at room temperature. Finally, 100 μl of peroxidase-streptavidin (BioSpa Cat No: SB01-161) diluted 1/10000 in washing buffer were added and incubated 1 h at room temperature. Plates were then washed and incubated with 100 μl/well of the chromogenic substrate TMB before blocking with 2N H2SO4. Absorbance was read at 450 nm as described above. Linear regression was used to calculate MSF concentration in plasma samples from the standard curve made with recombinant MSF.
The 1G5.3-F(ab)′2 fragment was then tested in the sandwich ELISA following the same procedure outlined above. […]

From US20200283515A1 (HUMANITAS MIRASOLE S P A, published 2020) come the findings set out here.

Ends that are not written are not given here. * marks the point of attachment. Biotin = O=C1N[C@H]2[C@H](CS[C@H]2CCCCC(=O)*)N1; Ahx = NCCCCCC(=O)O

T2 sequence (P02751 other isoform, or with tags, fused parts or gaps limits assumed): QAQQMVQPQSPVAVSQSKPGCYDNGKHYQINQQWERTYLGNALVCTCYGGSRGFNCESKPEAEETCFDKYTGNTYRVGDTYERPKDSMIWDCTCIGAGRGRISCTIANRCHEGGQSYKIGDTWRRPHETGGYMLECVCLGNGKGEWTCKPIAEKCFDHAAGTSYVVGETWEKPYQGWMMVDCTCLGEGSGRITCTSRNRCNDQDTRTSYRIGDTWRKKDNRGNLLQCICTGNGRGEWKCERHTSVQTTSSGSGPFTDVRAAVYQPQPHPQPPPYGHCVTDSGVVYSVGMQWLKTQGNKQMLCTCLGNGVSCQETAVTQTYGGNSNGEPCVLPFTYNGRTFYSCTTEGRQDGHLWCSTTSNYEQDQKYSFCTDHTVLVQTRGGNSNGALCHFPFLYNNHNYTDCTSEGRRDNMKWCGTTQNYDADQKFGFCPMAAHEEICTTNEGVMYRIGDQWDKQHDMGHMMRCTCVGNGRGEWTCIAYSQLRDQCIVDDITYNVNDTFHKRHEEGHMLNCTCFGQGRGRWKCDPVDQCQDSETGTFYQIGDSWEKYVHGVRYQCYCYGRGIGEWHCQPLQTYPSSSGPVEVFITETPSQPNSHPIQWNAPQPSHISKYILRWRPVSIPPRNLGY
T3 sequence (P02751 other isoform, or with tags, fused parts or gaps limits assumed): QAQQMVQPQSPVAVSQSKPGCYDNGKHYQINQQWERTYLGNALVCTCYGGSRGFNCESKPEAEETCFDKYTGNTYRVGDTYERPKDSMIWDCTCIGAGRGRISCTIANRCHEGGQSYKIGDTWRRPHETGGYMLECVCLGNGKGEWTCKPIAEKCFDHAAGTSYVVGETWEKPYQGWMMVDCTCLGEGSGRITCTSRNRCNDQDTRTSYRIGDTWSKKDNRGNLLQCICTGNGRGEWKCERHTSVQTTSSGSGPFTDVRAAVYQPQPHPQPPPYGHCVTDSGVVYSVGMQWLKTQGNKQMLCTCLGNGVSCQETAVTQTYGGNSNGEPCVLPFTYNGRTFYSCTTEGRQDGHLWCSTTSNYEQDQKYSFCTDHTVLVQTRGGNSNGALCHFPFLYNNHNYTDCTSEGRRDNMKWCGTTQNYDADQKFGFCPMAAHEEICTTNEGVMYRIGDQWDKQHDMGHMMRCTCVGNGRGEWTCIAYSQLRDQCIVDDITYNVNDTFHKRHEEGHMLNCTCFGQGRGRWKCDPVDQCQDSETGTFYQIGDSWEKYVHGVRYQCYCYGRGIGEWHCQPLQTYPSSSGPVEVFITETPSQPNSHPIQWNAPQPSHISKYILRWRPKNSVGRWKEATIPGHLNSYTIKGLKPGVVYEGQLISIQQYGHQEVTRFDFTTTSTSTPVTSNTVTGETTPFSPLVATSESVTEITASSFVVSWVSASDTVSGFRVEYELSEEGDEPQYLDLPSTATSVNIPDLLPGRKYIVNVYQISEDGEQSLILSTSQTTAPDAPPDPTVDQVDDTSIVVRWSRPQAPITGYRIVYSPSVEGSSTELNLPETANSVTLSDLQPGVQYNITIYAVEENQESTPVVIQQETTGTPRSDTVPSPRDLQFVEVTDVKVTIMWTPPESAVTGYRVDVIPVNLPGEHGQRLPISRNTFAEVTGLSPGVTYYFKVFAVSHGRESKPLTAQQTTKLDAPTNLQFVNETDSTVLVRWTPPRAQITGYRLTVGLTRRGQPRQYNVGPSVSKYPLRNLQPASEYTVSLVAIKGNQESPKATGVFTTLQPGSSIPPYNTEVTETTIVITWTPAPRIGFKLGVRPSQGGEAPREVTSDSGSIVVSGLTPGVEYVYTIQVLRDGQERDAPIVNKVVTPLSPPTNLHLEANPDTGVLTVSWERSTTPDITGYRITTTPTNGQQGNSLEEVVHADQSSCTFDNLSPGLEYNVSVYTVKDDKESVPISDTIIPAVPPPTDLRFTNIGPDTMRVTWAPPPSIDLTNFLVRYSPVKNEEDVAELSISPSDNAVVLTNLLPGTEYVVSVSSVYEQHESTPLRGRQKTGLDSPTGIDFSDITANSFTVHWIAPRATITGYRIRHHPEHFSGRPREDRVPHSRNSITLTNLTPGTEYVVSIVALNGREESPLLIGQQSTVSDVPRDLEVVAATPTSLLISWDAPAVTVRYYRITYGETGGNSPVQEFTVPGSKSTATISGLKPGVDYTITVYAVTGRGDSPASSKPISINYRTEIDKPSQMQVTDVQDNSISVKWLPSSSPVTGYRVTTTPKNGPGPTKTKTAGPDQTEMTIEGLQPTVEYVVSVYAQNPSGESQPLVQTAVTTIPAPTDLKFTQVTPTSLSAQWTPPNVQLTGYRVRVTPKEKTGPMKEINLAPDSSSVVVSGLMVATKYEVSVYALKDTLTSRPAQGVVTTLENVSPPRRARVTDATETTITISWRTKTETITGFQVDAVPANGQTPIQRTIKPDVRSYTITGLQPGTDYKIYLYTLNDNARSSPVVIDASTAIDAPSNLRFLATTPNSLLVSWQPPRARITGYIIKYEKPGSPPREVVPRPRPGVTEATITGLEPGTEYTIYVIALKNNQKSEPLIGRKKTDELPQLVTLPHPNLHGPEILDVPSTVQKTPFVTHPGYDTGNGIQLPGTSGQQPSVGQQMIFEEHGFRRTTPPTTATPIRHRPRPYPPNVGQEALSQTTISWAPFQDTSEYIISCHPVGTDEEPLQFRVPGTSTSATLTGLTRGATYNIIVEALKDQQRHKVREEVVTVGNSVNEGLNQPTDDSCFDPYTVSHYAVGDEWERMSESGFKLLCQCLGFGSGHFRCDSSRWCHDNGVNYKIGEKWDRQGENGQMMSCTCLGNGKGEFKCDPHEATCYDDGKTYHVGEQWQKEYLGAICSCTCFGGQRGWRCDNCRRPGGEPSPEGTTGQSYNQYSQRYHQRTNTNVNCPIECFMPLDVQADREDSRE

B1: monoclonal antibody 1G5.3 (antibody, mouse IgG1, kappa, V domains shown)
VH: EVKIEESGGGLVQPGGSMKLSCVASGFTFSNDWMNWVRQSPEKGLEWVAEIRMKSDNYATYYAESVKGRFTISRDDSKNSVYLQMNNLRAEDNGIYYCTSWDYWGQGTTLTVSS
VL: DIVMSQSPSSLAVSTGEKVTMNCRSSHYLLNSRTRKNFLSWYQQKPGQSPQLLIYWASTRYSGVPDRFTGSGSGTDFTLTISSVQAEDLAVYYCKQSYNLHTFGGGTKLEIKR
notes: Mouse IgG1, kappa; Used purified (Protein G) or as hybridoma supernatant; also called mAb 1G5.3; 1G5.3 mAb
On to B1, for which the binding result is “binds” in assay [1], “binds” in assay [2], “no binding (tested: 10 µg/ml to 0.005 ng/ml of 1G5.3)” in assay [3] and “binds” in assay [4].

B2: 1G5.3-F(ab)′2 fragment (other, not shown: a dimerising Fc or GST)
heavy: EVKIEESGGGLVQPGGSMKLSCVASGFTFSNDWMNWVRQSPEKGLEWVAEIRMKSDNYATYYAESVKGRFTISRDDSKNSVYLQMNNLRAEDNGIYYCTSWDYWGQGTTLTVSS
light: DIVMSQSPSSLAVSTGEKVTMNCRSSHYLLNSRTRKNFLSWYQQKPGQSPQLLIYWASTRYSGVPDRFTGSGSGTDFTLTISSVQAEDLAVYYCKQSYNLHTFGGGTKLEIKRADAAPTVSIFPPSSEQLTSGGASVVCFLNNFYPKDINVKWKIDGSERQNGVLNSWTDQDSKDSTYSMSSTLTLTKDEYERHNSYTCEATHKTSTSPIVKSFNRNEC
notes: Made from purified 1G5.3 by pepsin digestion; 110 kDa non-reduced; also called anti-human MSF 1G5.3 F(ab)′2 fragment
Take B2: in assay [5], the binding result is recorded as “binds”.
